Test results: PMC3791407, “Structural Rearrangement in an RsmA/CsrA Ortholog of Pseudomonas aeruginosa Creates a Dimeric RNA-Binding Protein, RsmN”
Like-named read-outs stand apart in the source and are kept apart here.

Columns and labels:
[1] = biological target: RsmN (His6-Thb-RsmN) (Pseudomonas aeruginosa PAO1); test: SEC + native MS; gel filtration analysis and ESI-MS of the purified His-tagged RsmN construct; conditions in the Supplemental Information
[2] = biological target: RsmN (Pseudomonas aeruginosa PAO1) (UniProt Q02EI1); test: ITC
[3] = biological target: RsmN R62A (Pseudomonas aeruginosa PAO1) (UniProt Q02EI1); test: ITC; conditions: ITC: 125 uM RNA titrated into protein, 25 mM potassium phosphate pH 7, 50 mM NaCl, 298 K; SEC: 50 uM protein, 100 uM RNA, same buffer
[4] = biological target: RsmA (UniProt O69078 1-61); test: ITC; 1 hairpin per monomer; ITC: 125 uM RNA titrated into protein, 25 mM potassium phosphate pH 7, 50 mM NaCl, 298 K; SEC: 50 uM protein, 100 uM RNA, same buffer; conditions: protein: recombinant, tags: N-terminal His6-thrombin site (LVPRGS), chain copies: 2, 6-nt loop AAGGAU, G5-C12 closing pair

RsmN (His6-Thb-RsmN) (natural protein)
stoichiometry N [1]: 2

UAAAAGGAAUA [PA1003/pqsR ribosome binding site]
Kd [2]: 704 nM

GCGCAGGAAGCGC [RsmY-1 hairpin]
Kd [2]: 526 nM

CCCCGAAGGAUCGGGG [RsmZ-2 hairpin]
binding signal (fold lower affinity than wild type) [3]: > 1000 | Kd ([2]; ITC: 125 uM RNA titrated into protein, 25 mM potassium phosphate pH 7, 50 mM NaCl, 298 K, SEC: 50 uM protein, 100 uM RNA, same buffer): 276 nM

B1: RsmZ-2 hairpin (structured_RNA)
RNA: CCCCGAAGGAUCGGGG
Kd [4]: 264 ± 43 nM
